Test results from the supplement of paper PMC10126150.
± gives the standard deviation of the averaged measurements.

Test system: ATP
Test: switch fluorescence ratio, 500 uM ATP over buffer (Cy3 cluster intensity, sum of 5 cycles each) (fold (ratio)); higher = stronger signal-on switching upon ATP binding; sequences stand for … in TCGTCGGCAGCGTCAGATGTGTATAAGAGACAGTTTTTTTTTTTTTTTTTTTTTTTTT…TC
Conditions: aptamer strand: ATP DNA aptamer (quencher-CACCTGGGGGAGTATTGCGGAGGAAGG + anchor), 100 nM annealed; ATP concentration: 500 uM
How it was run: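 For every switch-domain sequence, the fluorescence ratio is the mean of per-cluster values, each being summed target-cycle Cy3 intensity over summed buffer-cycle Cy3 intensity. Clusters outside 100-1000 RFU were excluded. On a modified Illumina MiSeq flow-cell, the Cy3-labelled switching-strand clusters were annealed to 100 nM quencher-labelled ATP aptamer, imaged in selection buffer and then after 15 min with 500 uM ATP at 22 °C. Five such cycles were run, with NaOH stripping and re-annealing between them.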
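Note: ATP exposure 15 min at 22 °C before imaging.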

Row | Sequence | switch fluorescence ratio
1 | AGACAAAGA | 0.967 ± 0.022
2 | AGCGAGTTTT | 1.01 ± 0.012
3 | ATGTGATTGG | 1.01 ± 0.027
4 | AGGGAGGCTC | 1 ± 0.057
5 | GAGGCTGATA | 1.02 ± 0.013
6 | AATATAGGTA | 1.02 ± 0.011
7 | ATATGTCTAG | 0.989 ± 0.01
8 | TATGTATTTT | 1.02 ± 0.055
9 | GATTTGTCGT | 0.986 ± 0.022
10 | GGCAATGAAA | 0.999 ± 0.019
11 | TTTAAACGGG | 1 ± 0.011
12 | TTTGTGGGAG | 0.998 ± 0.02
13 | TTGCCTGCAT | 1.011 ± 0.0092
14 | TTTAAACAA | 1 ± 0.032
15 | AAATCGAGCG | 0.969 ± 0.025
16 | TGTTTGGGCT | 1.02 ± 0.041
17 | TCGTTGTGTA | 0.995 ± 0.03
18 | CATAATATTG | 0.991 ± 0.011
19 | GGGTAAAGTG | 0.9928 ± 0.0032
20 | CGTTATTAGC | 1.033 ± 0.01
21 | CCAGGAGGGG | 1.04 ± 0.012
22 | ACTGGGTATT | 0.963 ± 0.061
23 | CGATGTTCAC | 1.05 ± 0.011
24 | CGGGGAATGG | 1.01 ± 0.03
25 | AATCGGAGCT | 1.09 ± 0.026
26 | GTAGGGGCCT | 1.057 ± 0.0073

Row | Sequence | switch fluorescence ratio
27 | AGGGGAGTAA | 0.996 ± 0.023
28 | GGGTTTTTTC | 0.9798 ± 0.0046
29 | CGAAGTTTGC | 1.23 ± 0.33
30 | TTTTGGGATT | 1.03 ± 0.06
31 | AAAAGCTTGC | 1.13 ± 0.11
32 | TTTACGGATG | 1.044 ± 0.0036
33 | ATTGGGGACT | 1.01 ± 0.019
34 | TGAGTGTTAC | 1 ± 0.028
35 | TGTTAGAGGG | 1.01 ± 0.063
36 | GAGGGCTGGG | 0.978 ± 0.079
37 | CGGGGAAATA | 1.01 ± 0.027
38 | CAGGAGTTGA | 1.01 ± 0.025
39 | GGCTCTGCTA | 1.11 ± 0.047
40 | ATGAAGTTTT | 1.02 ± 0.028
41 | GGGATTATTC | 0.9725 ± 0.0041
42 | GGAACGGGGC | 0.961 ± 0.06
43 | TGCAGGTGGC | 1.13 ± 0.035
44 | GTTTTGGCG | 1.03 ± 0.032
45 | GAGCTTTTCA | 0.965 ± 0.023
46 | GTTTATGTAC | 1.07 ± 0.065
47 | GCAACCCGGA | 1.01 ± 0.012
48 | GGAGATGCTA | 0.9616 ± 0.0059
49 | TTGGGATTCG | 1.01 ± 0.013
50 | GTGTTAGCGA | 0.997 ± 0.045
51 | TGTAGATTGT | 1.01 ± 0.049
52 | ACAGAAGGGG | 1.02 ± 0.012

Row | Sequence | switch fluorescence ratio
53 | GAGTTAATTT | 0.989 ± 0.017
54 | GCGATTATGG | 0.977 ± 0.019
55 | GTAAGGGGGT | 0.9731 ± 0.0091
56 | TTGGGGTTGG | 1.01 ± 0.03
57 | AGGTCCAGGT | 1.262 ± 0.0015
58 | CATCATTGGG | 0.993 ± 0.016
59 | ATGGGGGCGG | 1 ± 0.021
60 | TGCAGAAGCC | 1.02 ± 0.026
61 | TAGTCTGTGG | 0.993 ± 0.033
62 | ATCGATCGTT | 0.9986 ± 0.0027
63 | ATGATTGCAC | 1.01 ± 0.057
64 | GGGAGTATGT | 0.977 ± 0.054
65 | AGAAAGACTT | 1.04 ± 0.047
66 | GGTACGGAGA | 1.02 ± 0.011
67 | TTGAGTTGCG | 0.986 ± 0.028
68 | TGCACTCTCA | 1.04 ± 0.032
69 | GGGGGGGTGT | 1.01 ± 0.05
70 | ACTCATTTTA | 1.02 ± 0.024
71 | TATAAGTTTT | 0.9823 ± 0.0096
72 | TTTGGTAATG | 1.01 ± 0.021
73 | GTGCCCTGTA | 0.9704 ± 0.0046
74 | TAAGGAGTAG | 0.991 ± 0.027
75 | ACGAGGGGCG | 1 ± 0.045
76 | GTTTGTTATG | 0.999 ± 0.042
77 | GGTATTAGGT | 1.01 ± 0.011
78 | GCCGGAAGGC | 0.98 ± 0.076

Row | Sequence | switch fluorescence ratio
79 | TATATTTGGG | 0.998 ± 0.034
80 | CTATTTTTTT | 1.01 ± 0.02
81 | TGGGGGGCCA | 1 ± 0.027
82 | GGCGGAACTA | 1.01 ± 0.018
83 | TGGTTACATC | 1.04 ± 0.015
84 | CTGTCGTAAA | 1.07 ± 0.019
85 | AATGTGAGGG | 0.9772 ± 0.0092
86 | AATGTTTGAC | 0.977 ± 0.038
87 | CATCAGGATG | 1.01 ± 0.031
88 | TTTTGTTGAT | 1.03 ± 0.052
89 | CCTTGGGTAT | 1.01 ± 0.034
90 | TTCGGTGGAG | 0.96 ± 0.081
91 | CGGGGTTGTT | 0.9882 ± 0.0067
92 | GGATGTAGCG | 0.985 ± 0.051
93 | CAGTCTTATT | 0.9712 ± 0.0087
94 | TTTTCGGGGC | 0.981 ± 0.035
95 | ACAGCATGTA | 0.9589 ± 0.0093
96 | AAGTGAAGTT | 1.002 ± 0.004
97 | GGGTGAGATT | 1.02 ± 0.015
98 | ATATGAAGAA | 0.968 ± 0.01
99 | AGTGTCTGC | 0.97 ± 0.087
100 | TATAATTGGT | 0.9616 ± 0.007
101 | ACGTCAAAGG | 1.37 ± 0.51
102 | CGGGGCGTGC | 1.01 ± 0.029
103 | GAGTTACAGG | 1.04 ± 0.022
104 | GCGATCAATT | 1.14 ± 0.051

Row | Sequence | switch fluorescence ratio
105 | TGAGTAGGGC | 0.948 ± 0.041
106 | CTTTTTGGGT | 0.968 ± 0.028
107 | TAGGGGATTT | 1 ± 0.042
108 | CAGCTATGTG | 0.973 ± 0.011
109 | TTTCAATGTA | 1.01 ± 0.039
110 | GAATTTGAGA | 0.997 ± 0.019
111 | TTGATGATAT | 0.986 ± 0.019
112 | CGATTTGGCA | 1.01 ± 0.0076
113 | CCTCATTGAC | 2.24 ± 0.15
114 | ACTTCGTATG | 1.03 ± 0.011
115 | TTTATATGAG | 0.999 ± 0.044
116 | AGTTTGCTGG | 0.996 ± 0.039
117 | TATTGGCAGA | 1.008 ± 0.01
118 | CCTGACAGCG | 1.012 ± 0.0083
119 | TTGACTAGCT | 1.08 ± 0.09
120 | AGAGGGTCCA | 0.962 ± 0.021
121 | GAAGGCCGGG | 1.033 ± 0.0054
122 | GTGGAAAAAA | 1 ± 0.02
123 | GCTGTGTTGG | 1.02 ± 0.013
124 | CGGGAAATCC | 1.042 ± 0.0085
125 | TCCTAGGGGA | 1.03 ± 0.0033
126 | GGTTTGGGTA | 1.01 ± 0.0044
127 | TAGTAAATAT | 1.006 ± 0.0041
128 | TTGTGTTTTA | 0.998 ± 0.02
129 | GAGGATAAGT | 0.988 ± 0.078
130 | TTGGCATATC | 1.89 ± 0.76

Row | Sequence | switch fluorescence ratio
131 | TACATATTTT | 1.05 ± 0.043
132 | CGAAGTGTTT | 1 ± 0.02
133 | ATCATTTTAG | 0.995 ± 0.01
134 | AAAGTCACAC | 1.04 ± 0.022
135 | TGGGAAGAAT | 0.99323 ± 0.00037
136 | AGTGCGAAGG | 0.97211 ± 0.00025
137 | ACGGGCCCGA | 1.02 ± 0.029
138 | CCATCTGCGC | 1.82 ± 0.074
139 | CTTATAAATT | 0.999 ± 0.021
140 | ATATTGTACG | 1.03 ± 0.022
141 | TCAGTGGACG | 0.996 ± 0.072
142 | AGGTAATGTT | 1.01 ± 0.021
143 | CAAGTAGGTC | 0.98 ± 0.061
144 | TGGGTCGCCG | 0.964 ± 0.012
145 | GGAATTGGGG | 1.01 ± 0.027
146 | GGTCGGCTAG | 0.9954 ± 0.0083
147 | TCAGTTTAGA | 1 ± 0.011
148 | AGTCGATGTG | 0.966 ± 0.025
149 | AACGATTTAT | 0.9936 ± 0.0068
150 | TATTTAAAGG | 0.986 ± 0.02
151 | TAGGAAGGTA | 1.01 ± 0.018
152 | CATTGGTGGG | 0.977 ± 0.028
153 | GGATGTCAGG | 1 ± 0.045
